Results taken from paper doi:10.1101/2021.04.26.441214 (bioRxiv, 2021).
One block for each molecule: values may come before it.

Columns and labels:
Test in all cases: cryo-EM structure
[1] = target: T. maritima encapsulin shell protein (wild type) (T. maritima) (UniProt Q9WZP2)
[2] = target: T. maritima encapsulin shell protein (wild type) (T. maritima) (UniProt Q9WZP2); remark: listed apart in the source
cryo-EM structure = target: the molecule itself

Chain of T. maritima encapsulin shell protein (wild type) (T. maritima) (Q9WZP2 whole entry): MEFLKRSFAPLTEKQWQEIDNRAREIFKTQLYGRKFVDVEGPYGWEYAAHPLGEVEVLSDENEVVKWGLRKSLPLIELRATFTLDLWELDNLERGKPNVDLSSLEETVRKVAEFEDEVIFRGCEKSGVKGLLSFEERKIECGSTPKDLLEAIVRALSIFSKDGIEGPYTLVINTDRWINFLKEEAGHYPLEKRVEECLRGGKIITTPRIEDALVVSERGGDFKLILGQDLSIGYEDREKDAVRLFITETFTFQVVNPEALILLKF

- stoichiometry N (subunits per shell) [1]: 60
Molecule: T. maritima encapsulin shell protein (wild type) (from UniProt Q9WZP2 1-265) (natural protein)

- FLPs per shell (2D class averages) (FLPs per shell) [2]: 2
B1: T. maritima ferritin-like protein (FLP) cargo (natural protein, UniProt Q9WZP3 1-114, looked up)
chain: MADQYHEPVSELTGKDRDFVRALNSLKEEIEAVAWYHQRVVTTKDETVRKILEHNRDEEMEHAAMLLEWLRRNMPGWDEALRTYLFTDKPITEIEEETSGGSENTGGDLGIRKL
- stoichiometry N (cryo-EM structure): 10 subunits
